# Assay results published in paper PMC1635293.
# Read-outs that look alike come from different tables or passages of the source.
# What was measured:
# Assay in all cases: competition
# [1] = target: Exportin-5 (dmExp5);dmRanQ69L (GTP form) (Drosophila melanogaster?;Drosophila, UniProt Q9BP41;Q9VZ23 1-1241;1-216, |Q69L)
# [2] = target: T1, Msn5p (yeast exportin-5 orthologue);Gsp1pQ71L (GTP form) (budding yeast;yeast, UniProt P52918;P32835 1-1224;1-219, |Q71L)
# [3] = target: T2, Exportin-5 (hsExp5);hsRanQ69L (GTP form) (human;human, UniProt Q9HAV4;P62826 1-1204;1-216, |Q69L)
# T2 sequence (Q9HAV4 whole entry Q69L, one chain of several): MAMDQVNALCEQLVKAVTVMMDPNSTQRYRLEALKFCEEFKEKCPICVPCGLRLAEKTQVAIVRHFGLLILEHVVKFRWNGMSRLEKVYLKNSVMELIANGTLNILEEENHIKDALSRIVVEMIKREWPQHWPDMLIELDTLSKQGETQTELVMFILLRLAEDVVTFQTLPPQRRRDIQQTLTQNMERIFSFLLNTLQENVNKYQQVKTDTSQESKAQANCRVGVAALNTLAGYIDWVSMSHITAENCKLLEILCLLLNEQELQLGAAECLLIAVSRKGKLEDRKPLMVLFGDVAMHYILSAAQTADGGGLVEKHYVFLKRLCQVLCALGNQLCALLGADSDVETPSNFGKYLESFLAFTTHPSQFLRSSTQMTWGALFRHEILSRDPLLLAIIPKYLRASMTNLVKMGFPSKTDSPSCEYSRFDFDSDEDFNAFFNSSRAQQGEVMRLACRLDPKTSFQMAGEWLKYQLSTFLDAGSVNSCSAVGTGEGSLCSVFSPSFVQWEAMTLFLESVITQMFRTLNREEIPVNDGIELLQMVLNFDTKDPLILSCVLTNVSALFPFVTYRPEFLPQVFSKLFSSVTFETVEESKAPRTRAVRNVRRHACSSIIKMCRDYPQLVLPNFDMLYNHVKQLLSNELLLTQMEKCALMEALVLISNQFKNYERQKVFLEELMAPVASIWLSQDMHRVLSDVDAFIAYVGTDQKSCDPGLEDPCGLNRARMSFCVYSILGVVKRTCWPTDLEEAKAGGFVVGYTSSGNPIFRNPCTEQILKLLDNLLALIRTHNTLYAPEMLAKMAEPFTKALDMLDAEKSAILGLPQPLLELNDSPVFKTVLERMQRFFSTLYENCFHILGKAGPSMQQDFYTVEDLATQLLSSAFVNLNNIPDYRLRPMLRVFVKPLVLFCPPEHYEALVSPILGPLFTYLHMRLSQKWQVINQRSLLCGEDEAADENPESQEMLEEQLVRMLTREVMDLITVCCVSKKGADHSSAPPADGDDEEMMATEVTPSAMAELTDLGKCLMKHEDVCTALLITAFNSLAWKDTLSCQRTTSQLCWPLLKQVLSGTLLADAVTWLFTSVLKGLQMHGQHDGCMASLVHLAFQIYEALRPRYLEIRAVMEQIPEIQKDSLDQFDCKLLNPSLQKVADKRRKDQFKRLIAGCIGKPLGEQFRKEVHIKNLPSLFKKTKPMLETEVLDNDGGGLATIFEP
# [4] = target: T1, Msn5p (yeast exportin-5 …); remark: listed apart in the source
# [5] = target: T2, Exportin-5 (hsExp5);hsRanQ69L (GTP form); remark: listed apart in the source
Binder,binding result [1],binding result [2],binding result [3],binding result [4],binding result [5]
dsDNA encoding the same sequence as the dsRNA (dsDNA) DNA 1: GGGCTTTCAGTCGGATGTTTGCAGC DNA 2: TGCAAACATCCGACTGAAAGC,no binding,no binding,no binding,–,–
dsRNA with 2 nt 5' overhang (dsRNA) RNA 1: GGGCUUUCAGUCGGAUGUUUG RNA 2: UGCAAACAUCCGACUGAAAGC,–,–,–,no binding,no binding
dsRNA with 2 nt 3' overhang (22 bp dsRNA) (dsRNA) RNA 1: GGGCUUUCAGUCGGAUGUUUGCAGC RNA 2: UGCAAACAUCCGACUGAAAGC,binds,–,binds,–,–
